This note sets out measurements from paper PMC6420652 (2019).

Sequences and labels used below:
B1: AZIN with a C-terminal Clover (GFP) tag (natural protein)
chain: MKGFIDDANYSVGLLDEGTNLGNVIDNYVYEHTLTGKNAFFVGDLGKIVKKHSQWQNVVAQIKPFYTVKCNSAPAVLEILAALGTGFACSSKNEMALVQELGVPPENIIYISPCKQVSQIKYAAKVGVNILTCDNEIELKKIARNHPNAKVLLHIATEDNIGGEEGNMKFGTTLKNCRHLLECAKELDVQIIGVKFHVSSACKESQVYVHALSDARCVFDMAGEIGFTMNMLDIGGGFTGTEFQLEEVNHVISPLLDIYFPEGSGVKIISEPGSYYVSSAFTLAVNIIAKKVVENDKFPSGVEKTGSDEPAFMYYMNDGVYGSFASKLSEDLNTIPEVHKKYKEDEPLFTSSLWGPSCDELDQIVESCLLPELNVGDWLIFDNMGADSFHEPSAFNDFQRPAIYYMMSFSDWYEMQDAGITSDSMMKNFFFVPSCIQLSQEDSFSAEA
B2: Clover-AZIN (antizyme inhibitor with an N-terminal Clover tag) (natural protein)
chain: B1 chain
B3: antizyme-mRuby2 (antizyme with a C-terminal mRuby2 tag) (natural protein)
chain: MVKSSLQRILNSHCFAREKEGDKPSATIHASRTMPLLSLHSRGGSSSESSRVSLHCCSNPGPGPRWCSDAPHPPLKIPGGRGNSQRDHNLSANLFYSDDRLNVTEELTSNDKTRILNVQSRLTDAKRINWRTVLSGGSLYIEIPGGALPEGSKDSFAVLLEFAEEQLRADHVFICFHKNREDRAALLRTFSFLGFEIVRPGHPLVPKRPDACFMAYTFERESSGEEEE

Common to all, as to test: FRET
In assay [1] the target is antizyme with an N-terminal mRuby2 tag (human, UniProt P54368 1-228).
Sequence of antizyme with an N-terminal mRuby2 tag (P54368 whole entry): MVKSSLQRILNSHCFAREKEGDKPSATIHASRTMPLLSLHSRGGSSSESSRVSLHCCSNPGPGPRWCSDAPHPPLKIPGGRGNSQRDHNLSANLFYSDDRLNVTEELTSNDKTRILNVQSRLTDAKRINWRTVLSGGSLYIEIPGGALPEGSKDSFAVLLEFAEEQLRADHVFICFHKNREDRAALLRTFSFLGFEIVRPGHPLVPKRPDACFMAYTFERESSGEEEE
The target of assay [2] is B3.
Another assay concerns the target Clover-AZIN A325N (human, UniProt O14977 1-448, A325N).

What is called Kd is the concentration at which binding is half-saturated. Low values mean a tighter complex, high ones a looser complex. Turning to B1, the Kd is 89 nM in assay [1] and 29 nM in assay [2].

In assay [1], B2 gave a Kd of 80 nM. In the case of B3, in the assay with Clover-AZIN A325N, binding was characterised by a dissociation constant (Kd) of 35.6 nM.
